These results are taken from patent publication US20240368275A1 (ELPIS BIOPHARMACEUTICALS, published 2024).

The target of experiment [1] is T1, full-length human Nectin4 with C-terminal flag and Myc tags on CHO cells (human, UniProt Q96NY8 32-510).
T1 construct: whole, on cells; also called Nectin4/CHO; CHO/Nectin4; not shown: C-terminal flag and Myc tags of pCMV6-Entry vector
T1 sequence (looked up): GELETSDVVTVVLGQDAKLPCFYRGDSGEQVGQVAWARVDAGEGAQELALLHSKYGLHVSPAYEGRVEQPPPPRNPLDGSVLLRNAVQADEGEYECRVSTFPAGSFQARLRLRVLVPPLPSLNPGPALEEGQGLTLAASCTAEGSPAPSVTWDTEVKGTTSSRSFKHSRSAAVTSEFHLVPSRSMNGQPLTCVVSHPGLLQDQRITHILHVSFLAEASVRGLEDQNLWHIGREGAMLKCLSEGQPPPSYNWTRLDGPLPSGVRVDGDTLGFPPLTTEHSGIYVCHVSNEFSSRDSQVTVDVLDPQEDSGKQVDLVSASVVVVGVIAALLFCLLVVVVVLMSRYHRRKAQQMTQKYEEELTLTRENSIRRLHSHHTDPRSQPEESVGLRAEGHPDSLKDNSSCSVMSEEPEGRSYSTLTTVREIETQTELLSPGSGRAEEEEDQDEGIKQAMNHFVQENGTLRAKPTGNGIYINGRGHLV
In words: flow cytometry on CHO/Nectin4 cells. On the procedure: Nectin4/CHO Nectin4 cells were plated at 100,000 cells/well in a 96-well plate in 50 μL of full media. Cells were rested 1 hour at 37° C. Anti-Nectin4/CD3 was 3-fold serial titrated from 50 nM. 50 μL was added to the cells and incubated for 1 hours with shaking. Samples were washed one time with flow buffer. […] Samples were washed once with flow buffer. Samples were stained with 100 uL Zombie Fixable Viability Dyes (1:800 dilution) per well and incubated in dark at room temperature for 30 mins. Samples were spun down at 1200 rpm for 5 minutes and washed once with 200 uL flow buffer. Reconstituted samples in 200 uL of flow buffer and read on Attune NxT cytometer. EC₅₀ values for Nectin4 Binding were determined using Prism software.

Experiment [2] has as its target T2, human CD3E HIS tagged protein (human, UniProt P07766 23-126).
T2 construct: not shown: HIS tag
In words: SPR Biacore T200, bispecific captured on Protein A chip, CD3E-HIS injected. On the procedure:
(§1) The assay was run with Biacore T200 control software version 2.0. For each cycle, 1 ug/mL of anti-hNectin4/CD3 antibody was captured for 60 seconds at flow rate of 10 ul/min on flow cell 2 in 1×HBSP buffer on Protein A sensor chip. 2-fold serial diluted CD3E-HIS or hNectin4-HIS tagged protein was injected onto both reference flow cell 1 and anti-Nectin4/CD3 bispecific captured flow cell 2 for 150 seconds at flow rate of 30 ul/mins followed by wash for 300 seconds. The flow cells were then regenerated with Glycine pH2 for 60 seconds at flow rate of 30 ul/mins. 8 concentration points from 100 nM-0 nM (CD3E-HIS) or 300 nM-0 nM (Nectin4-HIS) was assayed per anti-Nectin4 IgG in a 96 well plate. The kinetics of Anti-Nectin4/CD3 bispecific binding to CD3E and Nectin4 proteins was analyzed with Biacore T200 evaluation software version 3.0. The specific binding response unit was derived from subtraction of binding to reference flow cell 1 from antibody captured flow cell 2. Table 10 below listed the kinetics results. ND means not determined. NA means data not available.
On the technique in general: Surface plasmon resonance follows binding to a sensor surface in real time, without labels.

Experiment [3] addresses T3, CD3 on Jurkat cells (UniProt P07766 23-207, limits assumed).
T3 construct: whole, on cells; the whole CD3/TCR complex stands on the cells; also called Jurkat CD3
In words: flow cytometry on Jurkat cells. On the procedure:
Jurkat cells were plated at 100,000 cells/well in a 96-well plate with 50 μL of full media. Anti-Nectin4/CD3 antibodies were 3-fold serial titrated from 20 nM. 50 μL was added to the cells and incubated for 1 hours at room temperature with shaking. Samples were washed one time with flow buffer. […] Samples were washed once with flow buffer. Samples were stained with 100 uL Zombie Fixable Viability Dyes at 1:800 dilution per well and incubated in dark at room temperature for 30 mins. Samples were spun down at 1300 rpm for 5 minutes and washed once with 200 uL flow buffer. Reconstituted samples in 200 uL of flow buffer and read on Attune NxT cytometer. EC50 values for CD3 binding were calculated using Prism 8.1 software.
(In general: A flow cytometer gives signals particle by particle.)

The target of experiment [4] is T2, human CD3E HIS tagged protein. In words: ELISA, coated human CD3E HIS tagged protein, bispecific titrated, anti-Human HRP. On the procedure: (§2) An ELISA assay was developed to determine the EC₅₀ of anti-Nectin4/CD3 bispecific antibodies. Briefly, 384 well plate was immobilized with human CD3E or Nectin4 HIS tagged protein at final concentration of 2 ug/mL in 1×PBS in total volume of 25 uL per well. The plate was incubated overnight at 4° C. followed by blocking with 80 uL of superblock per well for 1 hour. Purified anti-Nectin4/CD3 was 3-fold serial titrated from 100 nM. 25 uL was added to human Nectin4/CD3 immobilized wells and incubated for 1 hour with shaking. The CD3E or Nectin4 binding was detected by adding 25 uL of anti-Human HRP diluted at 1:10000 in 1×PBST. In between each step, the plate was washed 3 times with […] in a plate washer. The plate was then developed with 20 ul of TMB substrate for 5 mins and stopped by adding 20 ul of 2N sulfuric acid. The plate was read at OD450 nm Biotek plate reader and then plotted in Prism 8.1 software to calculate EC50.
On the technique in general: ELISA stands for enzyme-linked immunosorbent assay.

The target in experiment [5] is T3, CD3 on Jurkat cells. In words: cell-based or functional assay.
Experiment [6] deals with T4, human Nectin4-HIS tagged recombinant protein (human, UniProt Q96NY8 32-349).
T4 construct: also called hNectin4-HIS; Nectin4 HIS tagged protein; not shown: HIS tag
T4 sequence (looked up): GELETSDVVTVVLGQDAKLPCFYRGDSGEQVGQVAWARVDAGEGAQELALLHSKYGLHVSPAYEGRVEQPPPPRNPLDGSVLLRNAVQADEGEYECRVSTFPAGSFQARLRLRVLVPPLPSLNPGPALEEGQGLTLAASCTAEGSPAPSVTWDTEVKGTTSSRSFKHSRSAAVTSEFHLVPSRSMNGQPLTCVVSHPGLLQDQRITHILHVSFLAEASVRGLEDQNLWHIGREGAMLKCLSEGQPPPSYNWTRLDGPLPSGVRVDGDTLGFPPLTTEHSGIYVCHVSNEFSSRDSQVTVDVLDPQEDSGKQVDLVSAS
In words: SPR Biacore T200, bispecific captured on Protein A chip, hNectin4-HIS injected. On the procedure:
as §1

Experiment [7] deals with T4, human Nectin4-HIS tagged recombinant …. In words: ELISA, coated Nectin4 HIS tagged protein, bispecific titrated, anti-Human HRP. On the procedure:
as §2

The target of a further experiment is monkey nectin4 protein (monkey). In words: ELISA, coated monkey nectin4, IgG titrated, anti-hFc HRP.
Experiment [8] concerns the target T1, full-length human Nectin4 with …. In words: cell-based or functional assay.
Another experiment deals with T5, mouse nectin4 protein (mouse, UniProt Q8R007 31-347, limits assumed).
T5 sequence (looked up): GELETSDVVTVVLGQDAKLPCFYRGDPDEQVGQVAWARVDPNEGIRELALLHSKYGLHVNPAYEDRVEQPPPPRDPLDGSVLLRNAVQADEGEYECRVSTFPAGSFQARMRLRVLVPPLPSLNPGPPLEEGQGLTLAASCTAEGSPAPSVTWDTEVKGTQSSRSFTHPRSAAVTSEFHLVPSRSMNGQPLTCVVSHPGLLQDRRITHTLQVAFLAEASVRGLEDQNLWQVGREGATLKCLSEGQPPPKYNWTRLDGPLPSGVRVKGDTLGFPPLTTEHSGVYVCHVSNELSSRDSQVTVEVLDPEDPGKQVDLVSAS
In words: ELISA, coated mouse nectin4, IgG titrated, anti-hFc HRP.

Experiment [9] addresses T4, human Nectin4-HIS tagged recombinant …. In words: SPR Biacore T200, IgG captured on Protein A chip, hNectin4-HIS injected. On the procedure:
Kinetic analysis of anti-Nectin4 IgG has been assessed by the SPR technology with Biacore T200. The assay was run with Biacore T200 control software version 2.0. For each cycle, 1 ug/mL of anti-hNectin4-IgG was captured for 60 seconds at flow rate of 10 ul/min on flow cell 2 in 1×HBSP buffer on Protein A sensor chip. 2-fold serial hNectin4-HIS tagged protein was injected onto both reference flow cell 1 and anti-Nectin4 IgG captured flow cell 2 for 150 seconds at flow rate of 30 ul/mins followed by wash for 300 seconds. The flow cells were then regenerated with Glycine pH2 for 60 seconds at flow rate of 30 ul/mins. 8 concentration points from 100-0 nM was assayed per anti-Nectin4 IgG in a 96 well plate. The kinetics of Anti-Nectin4 IgG binding to Nectin4 protein was analyzed with Biacore T200 evaluation software version 3.0. The specific binding response unit was derived from subtraction of binding to reference flow cell 1 from antibody captured flow cell 2.

The target is the same in experiment [10]. In words: ELISA, coated human Nectin4-HIS, IgG titrated, anti-hFc HRP. On the procedure: An ELISA assay was developed to determine the EC₅₀ of exemplary anti-Nectin4 IgG antibodies. Briefly, 384 well plate was immobilized with human Nectin4-HIS tagged recombinant protein at final concentration of 2 ug/mL in 1×PBS in total volume of 25 uL per well. The plate was incubated overnight at 4° C. followed by blocking with 80 uL of superblock per well for 1 hour. Titration of purified anti-Nectin4 IgG starting at 200 nM 2-fold serial dilution, 25 uL was added to human Nectin4 immobilized wells and incubated for 1 hour with shaking. The Nectin4 binding was detected by adding 25 uL of anti-hFc HRP diluted at 1:5000 in 1×PBST. In between each step, the plate was washed 3 times with 1×PBST in a plate washer. The plate was then developed with 20 ul of TMB substrate for 5 mins and stopped by adding 20 ul of 2N sulfuric acid. The plate was read at OD450 nm Biotek plate reader and then plotted in Prism 8.1 software.

Experiment [11] has as its target T1, full-length human Nectin4 with …. In words: flow cytometry, IgG on Nectin4/CHO cells, anti-hFc Alexa fluor 647. On the procedure:
200 nM of purified anti-Nectin4 IgG antibodies were diluted in full medium and incubated with Nectin4/CHO and CHO cells in 96 wells plate on ice for 1 hour. Cells were spun down at 1200 rpm for 5 minutes at 4° C. to remove primary antibodies. Cells were then washed once with 200 uL of full medium per well. Samples were detected with anti-hFc Alexa fluor 647 by adding 100 uL of diluted secondary antibody and incubated at 4° C. for 30 minutes in the dark. Samples were spun down at 1200 rpm for 5 minutes at 4° C. and washed twice with 200 uL of 1×PBS per well. Reconstituted samples in 200 uL of 1×PBS and read on Attune NxT cytometer. Analysis was done by Attune NxT software plotting the overlay histogram of […] proteins binding onto both negative and target cell lines.

T2 sequence (P07766 23-126 limits assumed): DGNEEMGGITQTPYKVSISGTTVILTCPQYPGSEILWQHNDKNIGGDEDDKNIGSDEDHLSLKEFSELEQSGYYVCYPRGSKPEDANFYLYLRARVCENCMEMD
T3 sequence (P07766 23-207 limits assumed): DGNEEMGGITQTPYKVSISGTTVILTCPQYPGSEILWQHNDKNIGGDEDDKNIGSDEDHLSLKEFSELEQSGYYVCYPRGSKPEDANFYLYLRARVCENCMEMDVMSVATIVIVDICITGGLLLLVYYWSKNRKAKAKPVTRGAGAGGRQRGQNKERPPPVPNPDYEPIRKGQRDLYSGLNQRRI

B1: EP369/EP370/EP289 anti-Nectin4/CD3 bispecific antibody (bispecific antibody)
chain: not shown
heavy: EVQLVQSGAEVKKPGASVKVSCKASGYTFTGYYMHWVRQAPGQGLEWMGRINPNSGGTNYAQKFQGRVTMTRDTSISTAYMELSGLRSDDTAVYFCARVTYNIGWYIDYWGQGTLVTVSSASTKGPSVFPLAPSSKSTSGGTAALGCLVKDYFPEPVTVSWNSGALTSGVHTFPAVLQSSGLYSLSSVVTVPSSSLGTQTYICNVNHKPSNTKVDKKVEPKSCDKTHTCPPCPAPEAAGGPSVFLFPPKPKDTLMISRTPEVTCVVVDVSHEDPEVKFNWYVDGVEVHNAKTKPREEQYNSTYRVVSVLTVLHQDWLNGKEYKCKVSNKALGAPIEKTISKAKGQPREPQVCTLPPSRDELTKNQVSLSCAVKGFYPSDIAVEWESNGQPENNYKTTPPVLDSDGSFKLVSKLTVDKSRWQQGNVFSCSVMHEALHNHYTQKSLSLSPGK
light: QAVVTQPPSVSVAPGKTATITCGGNNIGSKGVHWYQQKPGQAPVLVIYYDTDRPSGIPERLSGSNSGNTATLTISRVEAGDEADYYCQVWDSSSDHPVFGGGTKLTVLGQPKANPTVTLFPPSSEELQANKATLVCLISDFYPGAVTVAWKADGSPVKAGVETTKPSKQSNNKYAASSYLSLTPEQWKSHRSYSCQVTHEGSTVEKTVAPTECS
notes: Monovalent format: anti-CD3 sp34 scFv-Fc knob (EP369), EP034-B09 heavy chain hole without ADCC (EP370), EP034-B09 light chain (EP289); also called EP369/370/289
Usually EC50 stands for the concentration that produces a half-maximal response. For orientation: Kd means the constant that tells how readily two partners part at equilibrium. What is called koff is the rate constant with which the complex falls apart. What is called kon is a measure of how fast the partners come together. As to B1, the EC50 in [1] was found to be 0.146 nM; with CD3 on Jurkat cells [3], 0.169 nM; in [4], 5 pM; in [7], 0.019 nM. For the same molecule, the values for the Kd in [2] and in experiment [6] were 2.23 nM and 1.22 nM, respectively. Further, the values for the off-rate (koff) in experiment [2] and in experiment [6] were 0.00059 s⁻¹ and 0.00012 s⁻¹, respectively. Also, the kon was determined as 265000 M⁻¹ s⁻¹ in experiment [2] and 98800 M⁻¹ s⁻¹ in [6]. Further, the “NFAT reporter EC50” value with CD3 on Jurkat cells [5] stood at 3.8 pM.

B2: 2020EP034-E01 IgG (EP296/EP286) (antibody, V domains shown)
VH: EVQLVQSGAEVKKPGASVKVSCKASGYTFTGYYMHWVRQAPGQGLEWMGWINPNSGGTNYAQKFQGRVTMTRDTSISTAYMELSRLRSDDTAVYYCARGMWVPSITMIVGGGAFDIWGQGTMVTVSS
VL: DVVMTQSPLSLPVTPGEPASMSCRSSESLLHRNGFNYLDWYVQRPGQSPKLLIYMGSYRASGVPDRFSGRGSGTDFALKISRVEAEDVGVYYCMQALQSPPLYTFGPGTKLEIKR
notes: Human IgG1
With B2, the EC50 in the experiment with monkey nectin4 protein was found to be 0.043 nM; with mouse nectin4 protein, 0.037 nM; in experiment [10], 0.035 nM; in experiment [11], 0.017 nM. Moreover, in experiment [8], the “ADCC Bioreporter assay EC50” value was determined as 1.43 nM. Also, the Kd in [9] is 11 nM.
